The values below come from US10829799 (UNIVERSITY COURT OF THE UNIVERSITY OF DUNDEE, dated 2020).

The target in this assay is T1, NAE (NEDD8 E1; Dac-NAE1-UBA3) (UniProt Q13564 1-534; Q8TBC4 1-463).
T1 construct: Co-expressed in Sf21 cells from pFastBacDual; not shown: Dac tag
T1 sequence (looked up) 1: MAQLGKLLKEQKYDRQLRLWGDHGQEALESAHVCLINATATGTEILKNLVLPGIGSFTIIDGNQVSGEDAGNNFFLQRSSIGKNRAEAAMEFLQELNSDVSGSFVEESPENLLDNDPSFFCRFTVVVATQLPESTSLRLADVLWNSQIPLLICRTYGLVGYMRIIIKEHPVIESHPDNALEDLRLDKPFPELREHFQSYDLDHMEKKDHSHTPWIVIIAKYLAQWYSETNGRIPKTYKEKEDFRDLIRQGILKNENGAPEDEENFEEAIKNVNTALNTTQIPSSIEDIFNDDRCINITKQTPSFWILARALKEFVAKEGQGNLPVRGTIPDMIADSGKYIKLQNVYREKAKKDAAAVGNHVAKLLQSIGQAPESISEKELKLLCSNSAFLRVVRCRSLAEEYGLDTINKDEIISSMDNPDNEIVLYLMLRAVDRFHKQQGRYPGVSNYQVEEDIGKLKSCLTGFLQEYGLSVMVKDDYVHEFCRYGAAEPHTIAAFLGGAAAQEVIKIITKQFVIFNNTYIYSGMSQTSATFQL
T1 sequence (looked up) 2: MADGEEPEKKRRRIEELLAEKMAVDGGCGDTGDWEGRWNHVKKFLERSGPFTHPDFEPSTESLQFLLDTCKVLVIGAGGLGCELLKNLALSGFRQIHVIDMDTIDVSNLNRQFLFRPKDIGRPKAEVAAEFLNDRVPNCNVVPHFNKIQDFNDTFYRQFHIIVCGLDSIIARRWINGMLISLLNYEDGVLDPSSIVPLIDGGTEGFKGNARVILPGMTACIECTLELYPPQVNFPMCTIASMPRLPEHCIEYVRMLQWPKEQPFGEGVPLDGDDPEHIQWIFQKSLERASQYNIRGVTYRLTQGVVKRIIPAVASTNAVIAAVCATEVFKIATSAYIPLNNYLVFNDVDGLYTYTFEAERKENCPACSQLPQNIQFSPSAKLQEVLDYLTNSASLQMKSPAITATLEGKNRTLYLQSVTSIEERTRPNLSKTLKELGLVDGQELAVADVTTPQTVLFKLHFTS
The experiment in a line: covalent activity-based labelling, SDS-PAGE (FIG. 3C). How it is done:
E2 probes (14 μM) were mixed with E1 enzyme (3.5 μM) and diluted 10× reaction buffer (500 mM Na_2HPO_4 pH 8) or 10×Ub-ATP buffer (500 mM Na_2HPO_4 pH 8, 20 μM ubiquitin, 20 mM ATP) to a final volume of 15-50 μL. Reactions were incubated at 30° C. and 15 μL aliquots were taken at 1 and 5 h time points which were quenched with 5 μL of reducing SDS-gel loading buffer (NuPAGE LDS loading buffer (4×), 715 mM 2-mercaptoethanol). The quenched reaction solutions were boiled for 5 minute at 100° C. and then 4 μL was analysed by SDS-PAGE (NuPAGE Bis-Tris, 4-12%).

B1: UBE2M-=CN (enzyme)
chain: MGSSHHHHHHSSGLEVLFQGPGSPEFPGVDSKAAAMIKLFSLKQQKKEEESAGGTKGSSKKASAAQLRIQKDINELNLPKTCDISFSDPDDLLNFKLVICPDEGFYKSGKFVFSFKVGQGYPHDPPKVKCETMVYHPNIDLEGNVCLNILREDWKPVLTINSIIYGLQYLFLEPNPEDPLNKEAAEVLQNNRRLFEQNVQRSMRGGYIGSTYFERCLK
modifications: labelled with TDMA 1 (thioacrylonitrile); 4 of 5 cysteines modified
notes: Legend notes a double band due to degradation of UBE2M
As for B1, the binding result was “binds”.
